# From the supplement of paper PMC10899765
# How the values were obtained:
# Settings in all cases: 20 nM; 72 h
# MCF10A [1] = assay: 5+ nucleoli phenotype percent effect (relative to siNT 0% and siKIF11 100%); higher = more cells with five or more nucleoli
# Procedure: (§1)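 After 72 h, cells were fixed and stained with Hoechst and anti-fibrillarin, and nucleoli per nucleus were counted with CellProfiler. Values are plate-adjusted percent effect for the one-nucleolus and 5+ nucleoli phenotypes, normalised to siNT (0%) and to the positive controls siNOL11 or siKIF11 (100%), as the mean of biological triplicates. Percent viability is the nuclei count relative to siNT.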
# MCF10A [2] = assay: one-nucleolus phenotype percent effect (relative to siNT 0% and siNOL11 100%); higher = more cells with one nucleolus (ribosome biogenesis inhibition)
# Procedure: as §1
# MCF10A [3] = assay: percent viability (nuclei count relative to siNT); higher = more viable cells
# Procedure: as §1
sequence,measurement,setting,value
AAAAGUAAUUGCGGAUUUUGCC [hsa-miR-548i],5+ nucleoli phenotype percent effect,MCF10A [1],20.3%
same,one-nucleolus phenotype percent effect,MCF10A [2],-17.1%
same,percent viability,MCF10A [3],140%
CAGGCGUCUGUCUACGUGGCUU [hsa-miR-3186-5p],5+ nucleoli phenotype percent effect,MCF10A [1],-8.59%
same,one-nucleolus phenotype percent effect,MCF10A [2],27.8%
same,percent viability,MCF10A [3],23.1%
CGGGGUCGGCGGCGACGUG [hsa-miR-7704],5+ nucleoli phenotype percent effect,MCF10A [1],9.03%
same,one-nucleolus phenotype percent effect,MCF10A [2],-0.45%
same,percent viability,MCF10A [3],38.3%
UGAGCCCCUGUGCCGCCCCCAG [hsa-miR-1225-3p],5+ nucleoli phenotype percent effect,MCF10A [1],19.9%
same,one-nucleolus phenotype percent effect,MCF10A [2],-16.7%
same,percent viability,MCF10A [3],98.1%
UACAGAUGCAGAUUCUCUGACUUC [hsa-miR-5683],5+ nucleoli phenotype percent effect,MCF10A [1],8.12%
same,one-nucleolus phenotype percent effect,MCF10A [2],15.3%
same,percent viability,MCF10A [3],40.9%
CGGCAACAAGAAACUGCCUGAG [hsa-miR-196a-3p],5+ nucleoli phenotype percent effect,MCF10A [1],-32.7%
same,one-nucleolus phenotype percent effect,MCF10A [2],37.8%
same,percent viability,MCF10A [3],25.1%
AUUGAAACCUCUAAGAGUGGA [hsa-miR-510-3p],5+ nucleoli phenotype percent effect,MCF10A [1],8.91%
same,one-nucleolus phenotype percent effect,MCF10A [2],-2.4%
same,percent viability,MCF10A [3],41.7%
AAAAGUAAUUGCGGUCUUUGGU [hsa-miR-548j],5+ nucleoli phenotype percent effect,MCF10A [1],17%
same,one-nucleolus phenotype percent effect,MCF10A [2],-14.6%
same,percent viability,MCF10A [3],85.9%
AAGACUGAGAGGAGGGA [hsa-miR-4499],5+ nucleoli phenotype percent effect,MCF10A [1],3.14%
same,one-nucleolus phenotype percent effect,MCF10A [2],-14%
same,percent viability,MCF10A [3],123%
UCCUACGCUGCUCUCUCACUCC [hsa-miR-6761-3p],5+ nucleoli phenotype percent effect,MCF10A [1],14.2%
same,one-nucleolus phenotype percent effect,MCF10A [2],-18.4%
same,percent viability,MCF10A [3],43.5%
UGUUUCGGGGCUCAUGGCCUGUG [hsa-miR-5705],5+ nucleoli phenotype percent effect,MCF10A [1],33.2%
same,one-nucleolus phenotype percent effect,MCF10A [2],-18.8%
same,percent viability,MCF10A [3],136%
GUGUGGAAGAUGGGAGGAGAAA [hsa-miR-6833-5p],5+ nucleoli phenotype percent effect,MCF10A [1],4.29%
same,one-nucleolus phenotype percent effect,MCF10A [2],-3.83%
same,percent viability,MCF10A [3],49.8%
AGUUUUGCAUAGUUGCACUACA [hsa-miR-19a-5p],5+ nucleoli phenotype percent effect,MCF10A [1],35.3%
same,one-nucleolus phenotype percent effect,MCF10A [2],-20%
same,percent viability,MCF10A [3],124%
AAAAGUACUUGCGGAUUUUGCU [hsa-miR-548k],5+ nucleoli phenotype percent effect,MCF10A [1],36.4%
same,one-nucleolus phenotype percent effect,MCF10A [2],-15.1%
same,percent viability,MCF10A [3],75.4%
AUGUAUAAAUGUAUACACAC [hsa-miR-568],5+ nucleoli phenotype percent effect,MCF10A [1],26.1%
same,one-nucleolus phenotype percent effect,MCF10A [2],-26.3%
same,percent viability,MCF10A [3],178%
UACGUCAUCGUUGUCAUCGUCA [hsa-miR-598],5+ nucleoli phenotype percent effect,MCF10A [1],47.8%
same,one-nucleolus phenotype percent effect,MCF10A [2],-26.8%
same,percent viability,MCF10A [3],151%
ACUCGGCUGCGGUGGACAAGU [hsa-miR-4638-5p],5+ nucleoli phenotype percent effect,MCF10A [1],-4.89%
same,one-nucleolus phenotype percent effect,MCF10A [2],3.97%
same,percent viability,MCF10A [3],39.5%
GAAGUGUGCCGUGGUGUGUCU [hsa-miR-595],5+ nucleoli phenotype percent effect,MCF10A [1],-22%
same,one-nucleolus phenotype percent effect,MCF10A [2],12.4%
same,percent viability,MCF10A [3],30.6%
UGUAGGCAUGAGGCAGGGCCCAGG [hsa-miR-6806-5p],5+ nucleoli phenotype percent effect,MCF10A [1],44.5%
same,one-nucleolus phenotype percent effect,MCF10A [2],-16.3%
same,percent viability,MCF10A [3],32.5%
UGUCUACAUUAAUGAAAAGAGC [hsa-miR-3618],5+ nucleoli phenotype percent effect,MCF10A [1],-1.03%
same,one-nucleolus phenotype percent effect,MCF10A [2],16.7%
same,percent viability,MCF10A [3],66.2%
CUGGGGGACGCGUGAGCGCGAGC [hsa-miR-4665-5p],5+ nucleoli phenotype percent effect,MCF10A [1],9.32%
same,one-nucleolus phenotype percent effect,MCF10A [2],18.8%
same,percent viability,MCF10A [3],31.2%
UCUGAAUUGUAAGAGUUGUUA [hsa-miR-4680-3p],5+ nucleoli phenotype percent effect,MCF10A [1],14.3%
same,one-nucleolus phenotype percent effect,MCF10A [2],-21.5%
same,percent viability,MCF10A [3],114%
GGGGGGGGGGGGGGGGGGCCG [hsa-miR-1234-5p],5+ nucleoli phenotype percent effect,MCF10A [1],65.1%
same,one-nucleolus phenotype percent effect,MCF10A [2],-31.5%
same,percent viability,MCF10A [3],78.1%
CAUCUUCCAGUACAGUGUUGGA [hsa-miR-141-5p],5+ nucleoli phenotype percent effect,MCF10A [1],-4.79%
same,one-nucleolus phenotype percent effect,MCF10A [2],-9.13%
same,percent viability,MCF10A [3],64.8%
UCGAGGAGCUCACAGUCUAGU [hsa-miR-151a-5p],5+ nucleoli phenotype percent effect,MCF10A [1],9.84%
same,one-nucleolus phenotype percent effect,MCF10A [2],-6%
same,percent viability,MCF10A [3],86.8%
AGUUGCCUUUUUGUUCCCAUGC [hsa-miR-4423-5p],5+ nucleoli phenotype percent effect,MCF10A [1],-0.303%
same,one-nucleolus phenotype percent effect,MCF10A [2],-22.1%
same,percent viability,MCF10A [3],44.9%
UCUUCUUCCUUUGCAGAGUUGA [hsa-miR-4778-3p],5+ nucleoli phenotype percent effect,MCF10A [1],1.95%
same,one-nucleolus phenotype percent effect,MCF10A [2],-1.98%
same,percent viability,MCF10A [3],77.1%
CCAGAGGUGGGGACUGAG [hsa-miR-4257],5+ nucleoli phenotype percent effect,MCF10A [1],1.69%
same,one-nucleolus phenotype percent effect,MCF10A [2],22.3%
same,percent viability,MCF10A [3],24.6%
CAUUAUUACUUUUGGUACGCG [hsa-miR-126-5p],5+ nucleoli phenotype percent effect,MCF10A [1],12.5%
same,one-nucleolus phenotype percent effect,MCF10A [2],-14.9%
same,percent viability,MCF10A [3],88.9%
CUGGAGAUAUGGAAGAGCUGUGU [hsa-miR-1270],5+ nucleoli phenotype percent effect,MCF10A [1],-41.4%
same,one-nucleolus phenotype percent effect,MCF10A [2],38.6%
same,percent viability,MCF10A [3],34.1%
UGUGCAAAUCCAUGCAAAACUGA [hsa-miR-19b-3p],5+ nucleoli phenotype percent effect,MCF10A [1],-2.64%
same,one-nucleolus phenotype percent effect,MCF10A [2],4.13%
same,percent viability,MCF10A [3],82.4%
AGGGAAAAAAAAAAGGAUUUGUC [hsa-miR-4668-5p],5+ nucleoli phenotype percent effect,MCF10A [1],61.6%
same,one-nucleolus phenotype percent effect,MCF10A [2],-20.9%
same,percent viability,MCF10A [3],65%
UUGCACUCUGGCCUUCUCCCAGG [hsa-miR-7703],5+ nucleoli phenotype percent effect,MCF10A [1],-11.1%
same,one-nucleolus phenotype percent effect,MCF10A [2],23%
same,percent viability,MCF10A [3],25%
UUUCCCUUUCCAUCCUGGCAG [hsa-miR-5006-3p],5+ nucleoli phenotype percent effect,MCF10A [1],18.5%
same,one-nucleolus phenotype percent effect,MCF10A [2],4.84%
same,percent viability,MCF10A [3],31.7%
UCAAGAGCAAUAACGAAAAAUGU [hsa-miR-335-5p],5+ nucleoli phenotype percent effect,MCF10A [1],37.7%
same,one-nucleolus phenotype percent effect,MCF10A [2],-9.96%
same,percent viability,MCF10A [3],79.4%
CAGAGAAUUGUUUAAUC [hsa-miR-3123],5+ nucleoli phenotype percent effect,MCF10A [1],54.9%
same,one-nucleolus phenotype percent effect,MCF10A [2],-40.8%
same,percent viability,MCF10A [3],124%
